In article PMC7819272:
Where no end group is shown, it is not given here. The star is where a group is joined. Biotin = O=C1N[C@H]2[C@H](CS[C@H]2CCCCC(=O)*)N1

Target: HLA-DR3 (HLA-DRβ1-Arg74 positive) on the surface of VAVY cells (human (endogenous in VAVY))
Test: flow cytometry on cells

Biotin-GIFNTGLKMFPDLTKVYST [TSHR132–150 peptide, biotinylated] showed a percent binding to DRβ-Arg74-positive cells at 10 μM peptide of 5.1%, a percent binding to DRβ-Arg74-positive cells at 20 μM peptide of 21.7% and a percent binding to DRβ-Arg74-positive cells at 50 μM peptide of 51%.

Biotin-FNGTKLDAVYLNKNKYLTVI [TSHR197–216 peptide, biotinylated] was tested, and the percent binding to DRβ-Arg74-positive cells at 10 μM peptide was 14.7%, the percent binding to DRβ-Arg74-positive cells at 20 μM peptide was 19.4% and the percent binding to DRβ-Arg74-positive cells at 50 μM peptide was 72.9%.
